This note sets out measurements from article PMC3947560.

For this data set, the target named is ETV1 (ER81) 249-477 (UniProt P50549 249-477). Briefly: EMSA. A general note: A gel shift assay detects complexes by their altered migration in electrophoresis.
ETV1 (ER81) 249-477, sequence (P50549 249-477): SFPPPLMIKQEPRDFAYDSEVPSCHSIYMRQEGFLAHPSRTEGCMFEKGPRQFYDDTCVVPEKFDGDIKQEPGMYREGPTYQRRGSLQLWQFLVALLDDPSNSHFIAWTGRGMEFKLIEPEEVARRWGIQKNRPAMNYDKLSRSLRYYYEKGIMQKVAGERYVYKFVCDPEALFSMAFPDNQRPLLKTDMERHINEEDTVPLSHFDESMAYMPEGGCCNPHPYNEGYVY

B1: ETS8/9 (PSA enhancer) (dsDNA)
DNA 1: CTTTACAAACATCCTTGAAACAACAATCCAGAA
DNA 2: TTCTGGATTGTTGTTTCAAGGATGTTTGTAA
Turning to B1, the binding result is listed as “binds”.
